Data set [1] deals with T1, SCL30 (UniProt Q8L3X8 1-262).
T1 sequence: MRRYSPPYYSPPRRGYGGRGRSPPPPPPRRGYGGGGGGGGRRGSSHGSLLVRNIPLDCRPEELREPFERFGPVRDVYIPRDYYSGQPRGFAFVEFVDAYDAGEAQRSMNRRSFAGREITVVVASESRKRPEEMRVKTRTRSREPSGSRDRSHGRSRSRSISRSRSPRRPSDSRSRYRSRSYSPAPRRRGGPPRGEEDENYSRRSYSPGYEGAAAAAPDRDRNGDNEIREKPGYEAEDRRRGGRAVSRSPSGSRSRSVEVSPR
The experiment in a line: competition; 0.625-5 uM unlabeled RNA vs 10 nM N1, 0.4 ug SCL30; labeled binding abolished at 5 uM; 20 ul, 2 ug tRNA, 10 nM biotin-RNA, LightShift Chemiluminescent RNA EMSA kit buffer (salt and pH not stated), 30 min room temperature; 6% native PAGE in 0.5x TBE. The settings on record: protein: recombinant; tags: His; label: none.

In data set [2] the target is T1, SCL30. The experiment in a line: competition; mutated probe failed to compete with N1; 20 ul, 2 ug tRNA, 10 nM biotin-RNA, LightShift Chemiluminescent RNA EMSA kit buffer (salt and pH not stated), 30 min room temperature; 6% native PAGE in 0.5x TBE. The settings on record: protein: recombinant; tags: His. Background: In EMSA bound probe runs differently from free probe, usually more slowly.

For data set [3], the target named is T1, SCL30. The experiment in a line: EMSA; 2 ug tRNA, 10 nM labeled RNA; 20 ul, 2 ug tRNA, 10 nM biotin-RNA, LightShift Chemiluminescent RNA EMSA kit buffer (salt and pH not stated), 30 min room temperature; 6% native PAGE in 0.5x TBE. The settings on record: protein: recombinant; tags: His; label: 5' biotin.

B1: AT1G53250 RNA, unlabeled competitor (ssRNA)
RNA: AGAUUAAAGAAGAGGAAAGGAGAAGG
As to B1, in the data set with SCL30 [1], the binding result was “binds”.

B2: AT1G53250 mutated RNA probe (AGAAGA to UCUUCU) (ssRNA)
RNA: AGAUUAAUCUUCUGGAAAGGAGAAGG
As to B2, the binding result in the data set with SCL30 [2] is recorded as “no binding”.

B3: AT1G53250 AGAAGA RNA probe (ssRNA)
RNA: AGAUUAAAGAAGAGGAAAGGAGAAGG
On to B3, for which the binding result with SCL30 [3] is “binds”.

For the origin of these results see publication PMC5362245, “Depletion of Arabidopsis SC35 and SC35-like serine/arginine-rich proteins affects the transcription and splicing of a subset of genes”.
